This passage reports IC50 of inhibition of nitrocefin hydrolysis by the β-lactamase (inhibitor 0.0078-2 μM, pre-incubated 15 min, MIC of meropenem against K. pneumoniae ATCC BAA-1705 (bla KPC-2 positive) with 10 or 20 μM protein (16 μg/mL without protein; 8 and reduction in β-lactamase activity (nitrocefin hydrolysis) results from PMC10817188.

For test [1], the target named is β-lactamase obtained from Bacillus cereus 569H (Bacillus cereus 569H).
Test [2] addresses KPC-2 carbapenemase (Klebsiella pneumoniae carbapenemase 2) (Klebsiella pneumoniae (endogenous in ATCC BAA-1705)) (UniProt Q9F663).
Test [3] deals with β-lactamase obtained from Bacillus cereus 569H (Bacillus cereus 569H). This is another data set of the same source.

Chain of UniProt Q9F663 (Q9F663 25-293): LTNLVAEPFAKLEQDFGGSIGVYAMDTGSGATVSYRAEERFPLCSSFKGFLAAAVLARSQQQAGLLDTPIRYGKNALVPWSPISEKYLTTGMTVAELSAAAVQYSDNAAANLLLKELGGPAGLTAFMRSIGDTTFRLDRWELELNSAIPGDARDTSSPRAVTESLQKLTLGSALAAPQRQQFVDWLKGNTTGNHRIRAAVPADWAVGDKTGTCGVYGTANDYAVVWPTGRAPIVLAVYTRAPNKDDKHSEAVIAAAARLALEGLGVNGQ

B1: truncated BLIP-II (tBLIP-II), β-lactamase inhibitory protein-II without its signal sequence (natural protein)
chain: ATSVVAWGGNNDWGEATVPAEAQSGVDAIAGGYFHGLALKGGKVLGWGANLNGQLTMPAATQSGVDAIAAGNYHSLALKDGEVIAWGGNEDGQTTVPAEARSGVDAIAAGAWASYALKDGKVIAWGDDSDGQTTVPAEAQSGVTALDGGVYTALAVKNGGVIAWGDNYFGQTTVPAEAQSGVDDVAGGIFHSLALKDGKVIAWGDNRYKQTTVPTEALSGVSAIASGEWYSLALKNGKVIAWGSSRTAPSSVQSGVSSIEAGPNAAYALKG
Molecule B1 showed an IC50 of inhibition of nitrocefin hydrolysis by the β-lactamase (inhibitor 0.0078-2 μM, pre-incubated 15 min at 30°C, absorbance at 490 nM) in test [1] of 51.1 nM. In addition, the MIC of meropenem against K. pneumoniae ATCC BAA-1705 (bla KPC-2 positive) with 10 or 20 μM protein (16 μg/mL without protein; 8 at both concentrations) in test [2] stood at 8 µg/mL. The molecule also had a reduction in β-lactamase activity (nitrocefin hydrolysis) at 0.0625 μM inhibitor; constant at higher concentrations up to 2 μM in test [3] of 70%.
